Patent US20100184651A1, “TARGETED FUSION PROTEINS FOR CANCER THERAPY” (Dabur Pharma Limited, priority 2005, published 2010)

Experiments:
[1] = biological target: T1, VPAC 1 receptors expressed on A549 cells (Homo sapiens, UniProt P32241); test: Immunocytochemical staining for cell surface receptors on A549 cells; format: binding; conditions: A549 cells pre-treated, then anti-VPAC-1 immunostaining
T1 construct: the receptors were overexpressed in the A549 cell line; endogenous in cells; host or cells: A549 human lung carcinoma cells (acetone-fixed on slides)
T1 sequence (P32241 31-457): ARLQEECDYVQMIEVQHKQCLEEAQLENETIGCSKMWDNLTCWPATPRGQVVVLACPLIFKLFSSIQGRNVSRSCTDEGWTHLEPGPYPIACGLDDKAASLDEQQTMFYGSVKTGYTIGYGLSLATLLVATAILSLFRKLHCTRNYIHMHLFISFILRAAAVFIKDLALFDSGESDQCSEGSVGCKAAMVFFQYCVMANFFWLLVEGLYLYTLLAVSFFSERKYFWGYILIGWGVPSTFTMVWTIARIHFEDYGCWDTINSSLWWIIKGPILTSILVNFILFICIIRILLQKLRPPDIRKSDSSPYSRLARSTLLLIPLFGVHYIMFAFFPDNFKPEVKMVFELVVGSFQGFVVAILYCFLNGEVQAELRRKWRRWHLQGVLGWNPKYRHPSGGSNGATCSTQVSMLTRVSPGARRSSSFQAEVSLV
Protocol: Similarly, when, the cells were treated with fusion protein and immuno-stained with anti-BID. […] A similar observation was made when A549 cells were pre-treated with VIP antagonist, VIP (10-28) followed by fusion protein and immunostaining with anti-BID (FIG. 15e).
Cultured (A549 human lung carcinoma) cells were detached with trypsin/EDTA and pelleted by low-speed centrifugation. The cells were resuspended in PBS. Cell suspensions were coated onto poly-L-lysine coated glass slides, dried and then fixed for 10 min in acetone at −20° C. After drying for 2 h, slides were rinsed in PBS and then treated for 5 min with water/H2O2 in order to block endogenous peroxidase. Slides were again rinsed again in PBS and treated with normal rabbit and goat serum to block background staining. Slides were then incubated with antagonist, VIP(10-28) and/or fusion protein for 1 hr each. Slides were again washed with PBS and incubated with rabbit-anti-BID antibody (dilution 1:1000) or goat anti-VPAC 1 antibody (dilution 1:1000) for 1 h. Slides were again washed in PBS and incubated with […] IgG peroxidase labelled antibodies for anti-BID and anti-VPAC 1 primary antibodies respectively, for 1 h followed by addition of the 3,3′-diaminobenzidine-tetrachloride (DAB) substrate and hydrogen peroxide in PBS. […]

VPAC-1 receptors = biological target: T2, VPAC-1 receptors (Homo sapiens, UniProt P32241); test: Receptor targeting: competition with VIP (10-28) antagonist, MTT assay in HT29 cells; format: cell-based; conditions: 24 h
T2 construct: endogenous in cells; host or cells: HT29 colon carcinoma cells
T2 sequence (P32241 31-457): T1 sequence (P32241 31-457)
Protocol: To further confirm the receptor mediated targeting of the protein, HT29 cells were pre-incubated with varying concentrations of VIP antagonist, VIP (10-28) peptide [Gozes I., et al., Cell Mol. Neurobiol., 1995, 15, 675] for 30 minutes followed by treatment with 10 μM of fusion protein. […] Similar, observation was made when the cells were treated with 5 μM of fusion protein, although this time the receptors were saturated by 25 μM concentration of the antagonist (FIG. 14b).
Cells were seeded in 96-well microplates, followed by the addition of various concentrations of the VIP antagonist VIP (10-28) Fragment for 30 minutes, followed by the addition of fusion protein at a fixed concentration. VIP (10-28) Fragment was allowed to remain in culture wells for whole of the experiment. After a 24-hour incubation, the MTT assay was performed as above.

VIP (10-28) peptide: VIP antagonist, VIP (10-28) peptide (YTRLRKQMAVKKYLNSILN)
availability of VPAC-1 receptors to anti VPAC-1 after pre-treatment [1]: significant loss in the immunostained cell population
concentration of antagonist giving complete loss of cytotoxicity of fusion protein (VPAC-1 receptors; HT29 pre-incubated 30 minutes with antagonist, then 10 μM of fusion protein): 100 µM
concentration of antagonist at which the receptors were saturated (loss of cytotoxicity) (VPAC-1 receptors; HT29 pre-incubated with antagonist, then 5 μM of fusion protein): 25 µM
